Consider 1 molecule from paper PMC9574498 (The Journal of Biological Chemistry, 2022).

Series [1] concerns the molecule itself. Description: SEC-SAXS. A general note: In gel filtration, larger molecules generally elute earlier.
The target in series [2] is human calmodulin (Ca^2+-CaM; apo-CaM in EDTA) (human, UniProt P0DP23 1-149). In words: SEC.

By stoichiometry N is commonly meant the number of molecules, sites or subunits per partner or assembly.

B1: human P2X7R ballast domain (P2X7BD, residues 395–595) (domain or fragment, UniProt Q99572 395-595, looked up)
chain: KPTLKYVSFVDESHIRMVNQQLLGRSLQDVKGQEVPRPAMDFTDLSRLPLALHDTPPIPGQPEEIQLLRKEATPRSRDSPVWCQCGSCLPSQLPESHRCLEELCCRKKPGACITTSELFRKLVLSRHVLQFLLLYQEPLLALDVDSTNSRLRHCAYRCYATWRFGSQDMADFAILPSCCRWRIRKEFPKSEGQYSGFKSPY
Consider B1, for which, in series [1], the “stoichiometry N” value was 3. Besides, the binding result in series [2] is “binds”.
